Reference: patent US20240158515A1 (Regeneron, published 2024)

Tests used:
[1] = biological target: full length human FGFR3b S249C on BaF3 cells (BAF3/FGFR3b_S249C, ACL11986) (human, UniProt P22607 23-808); assay: cell-based or functional assay
[2] = biological target: full length human FGFR3b S249C/V557M on BaF3 cells (human, UniProt P22607 23-808); assay: cell-based or functional assay
[3] = biological target: full length human FGFR3b S249C/V557L on BaF3 cells (human, UniProt P22607 23-808); assay: cell-based or functional assay
[4] = biological target: T1, human FGFR3b expressed with a C-terminal myc-myc-hexahistidine tag (hFGFR3b.mmH) (human); assay: SPR Biacore, mAb captured on anti-hFc, 25C
T1 construct: also called REGN3152; monomeric human FGFR3b
T1 chain: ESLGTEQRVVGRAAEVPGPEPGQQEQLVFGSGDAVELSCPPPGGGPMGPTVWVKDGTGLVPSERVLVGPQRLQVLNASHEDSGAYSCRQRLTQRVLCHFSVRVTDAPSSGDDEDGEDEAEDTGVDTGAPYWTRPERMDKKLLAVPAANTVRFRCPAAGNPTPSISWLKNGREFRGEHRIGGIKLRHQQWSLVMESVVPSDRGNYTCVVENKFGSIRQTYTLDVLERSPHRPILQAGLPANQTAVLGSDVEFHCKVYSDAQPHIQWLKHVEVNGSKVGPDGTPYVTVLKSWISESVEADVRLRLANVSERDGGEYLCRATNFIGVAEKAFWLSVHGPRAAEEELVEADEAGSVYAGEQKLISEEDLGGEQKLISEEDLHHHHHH

[5] = biological target: T2, cynomolgus FGFR3b expressed with a C-terminal myc-myc-hexahistidine tag (mfFGFR3b.mmH) (cynomolgus); assay: SPR Biacore, mAb captured on anti-hFc, 25C
T2 construct: also called REGN3521; mf FGFR3b ecto (R357G)(E23-G377;R357G).mmH
T2 chain: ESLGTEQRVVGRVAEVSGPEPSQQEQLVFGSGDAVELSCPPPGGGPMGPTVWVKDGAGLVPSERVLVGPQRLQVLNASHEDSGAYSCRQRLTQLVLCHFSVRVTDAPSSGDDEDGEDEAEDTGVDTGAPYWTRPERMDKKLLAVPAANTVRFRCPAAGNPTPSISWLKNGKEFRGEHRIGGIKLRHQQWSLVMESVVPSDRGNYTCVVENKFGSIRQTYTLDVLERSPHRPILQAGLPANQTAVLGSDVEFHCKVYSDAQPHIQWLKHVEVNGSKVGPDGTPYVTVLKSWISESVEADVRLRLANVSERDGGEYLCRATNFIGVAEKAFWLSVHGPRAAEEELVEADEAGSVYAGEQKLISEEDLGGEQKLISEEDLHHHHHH

[6] = biological target: T3, murine FGFR3b expressed with a C-terminal myc-myc-hexahistidine tag (mFGFR3b.mmH) (murine); assay: SPR Biacore, mAb captured on anti-hFc, 25C
T3 construct: also called REGN3215; monomeric murine FGFR3b
T3 chain: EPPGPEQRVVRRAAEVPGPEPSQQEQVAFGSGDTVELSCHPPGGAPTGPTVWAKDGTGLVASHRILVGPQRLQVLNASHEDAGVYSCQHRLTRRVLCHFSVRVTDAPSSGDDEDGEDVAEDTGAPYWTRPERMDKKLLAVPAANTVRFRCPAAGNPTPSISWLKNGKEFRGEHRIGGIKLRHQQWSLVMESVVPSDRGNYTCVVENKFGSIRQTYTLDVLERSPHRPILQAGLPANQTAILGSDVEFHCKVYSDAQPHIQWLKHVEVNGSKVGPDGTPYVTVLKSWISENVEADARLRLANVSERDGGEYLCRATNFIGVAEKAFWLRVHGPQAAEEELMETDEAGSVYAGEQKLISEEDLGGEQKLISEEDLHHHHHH

[7] = biological target: T4, human FGFR3b expressed with a C-terminal murine Fc tag (hFGFR3b.mFc) (human); assay: SPR Biacore, mAb captured on anti-hFc, 25C
T4 construct: called dimeric; also called REGN3153; dimeric human FGFR3b
T4 chain: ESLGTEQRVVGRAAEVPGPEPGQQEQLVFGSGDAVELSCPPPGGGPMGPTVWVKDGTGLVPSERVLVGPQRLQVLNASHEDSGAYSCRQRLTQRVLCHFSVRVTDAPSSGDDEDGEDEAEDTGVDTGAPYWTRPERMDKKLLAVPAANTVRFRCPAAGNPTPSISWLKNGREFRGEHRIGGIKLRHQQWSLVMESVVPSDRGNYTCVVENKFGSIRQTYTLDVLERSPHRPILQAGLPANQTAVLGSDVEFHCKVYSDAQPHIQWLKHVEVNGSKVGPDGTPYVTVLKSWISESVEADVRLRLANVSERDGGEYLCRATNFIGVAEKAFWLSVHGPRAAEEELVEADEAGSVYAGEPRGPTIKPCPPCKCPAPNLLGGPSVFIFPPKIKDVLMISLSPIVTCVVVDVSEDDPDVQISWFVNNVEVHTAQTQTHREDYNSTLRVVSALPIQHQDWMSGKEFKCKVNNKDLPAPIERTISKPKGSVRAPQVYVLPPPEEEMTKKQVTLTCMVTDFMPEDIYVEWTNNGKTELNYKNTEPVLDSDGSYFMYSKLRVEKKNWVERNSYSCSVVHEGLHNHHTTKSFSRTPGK

B1: H4H30063P (antibody, human IgG4 S228P, kappa, V domains shown)
VH: QVQLQESGPGLVKPSETLSLTCTVSGDSINSYFWSWIRQLPGKELEWIGHIYSSGSTRYNPSLQSRVTISIDTSKNQFSLKLSSVTAADTAVYYCARGASAVDYWGQGTLVTVSS
VL: EIVLTQSPGTLSLSPGERATLSCRTSQSISSGYLAWYQQKPGQAPRLLIYGASRRATGIPDRFSGSGSGTDFTLTISRLEPEDFVVYYCQQYGSSPYTFGQGTKLEIKR
notes: HCVR 2, LCVR 10; also called REGN15684
B1 was tested, and the “IC50, growth of BaF3 cells expressing FGFR3 S249C (CellTiter-Glo)” value [1] was 1.36 nM, the “IC50, growth of BaF3 cells expressing FGFR3 S249C/V557M (CellTiter-Glo)” value [2] was 3.9 nM and the “IC50, growth of BaF3 cells expressing FGFR3 S249C/V557L (CellTiter-Glo)” value [3] was 4.3 nM. The “90 nM hFGFR3b.mmH Bind (RU)” value [4] was 240 RU, the Kd [4] was 0.222 nM and the koff [4] was 3.83e-05 s⁻¹. The kon [4] was 172000 M⁻¹ s⁻¹, the “t½” value [4] was 5.03 h and the “90 nM mfFGFR3b.mmH Bind (RU)” value [5] was 212 RU. It also gave a Kd [5] of 0.275 nM, a koff [5] of 4.21e-05 s⁻¹ and a kon [5] of 153000 M⁻¹ s⁻¹. For the same binder, the “t½” value [5] was 4.58 h, the “90 nM mFGFR3b.mmH Bind (RU)” value [6] was 259 RU and the Kd [6] was 0.137 nM. The koff [6] was 2.78e-05 s⁻¹, the kon [6] was 204000 M⁻¹ s⁻¹ and the “t½” value [6] was 6.92 h. For the same binder, the “30 nM hFGFR3b.mFc Bind (RU)” value [7] was 296 RU, the Kd [7] was at most 0.0226 nM and the koff [7] was at most 1e-05 s⁻¹. For the same binder, the kon [7] was 442000 M⁻¹ s⁻¹ and the “t½” value [7] was at least 19.2 h.
